Assay results from patent publication US20160312207A1 (Stanford University, published 2016).

T1: human RSPO3 (human, UniProt Q9BXY4 22-272, limits assumed)
T1 construct: Recombinant protein; also called R-spondin 3
T1 sequence (looked up): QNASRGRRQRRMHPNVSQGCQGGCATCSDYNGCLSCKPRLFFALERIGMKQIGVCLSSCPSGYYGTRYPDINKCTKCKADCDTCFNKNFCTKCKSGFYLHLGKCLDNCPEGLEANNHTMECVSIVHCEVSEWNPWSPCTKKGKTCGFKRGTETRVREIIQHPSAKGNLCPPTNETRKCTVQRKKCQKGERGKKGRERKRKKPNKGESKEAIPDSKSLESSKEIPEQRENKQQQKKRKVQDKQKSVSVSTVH

B1: soluble RNF43-Fc ECD fusion protein (Fc fusion)
chain: GFGHTGRVLAAAVESERSAEQKAVIRVIPLKMDPTGKLNLTLEGVFAGVAEVTPAEGKLMQSHPLYLCNASDDDNLEPGFISIVKLESPRRAPRPCLSLASKARMAGERGANAVLFDITEDRSAAEQLQQPLGLTKPVVLIWGSDAAKLMEFVYKNRKAYVWIELKEPPRRLEPRGPTIKPCPPCKCPAPNLLGGPSVFIFPPKIKDVLMISLSPIVTCVVVDVSEDDPDVQISWFVNNVEVHTAQTQTHREDYNSTLRVVSALPIQHQDWMSGKEFKCKVNNKDLPAPIERTISKPKGSVRAPQVYVLPPPEEEMTKKQVTLTCMVTDFMPEDIYVEWTNNGKTELNYKNTEPVLDSDGSYFMYSKLRVEKKNWVERNSYSCSVVHEGLHNHHTTKSFSRTPGK
notes: No linker between ECD and Fc is stated; also called RNF43 ECD-Fc fusion protein; RNF43 ECD

Tests used:
human RSPO1 [1] = molecular target: T2, human RSPO1 (human, UniProt Q2MKA7 21-263, limits assumed); assay: Biacore (SPR)
T2 construct: Recombinant protein; also called R-spondin 1; recombinant R-spondin
T2 sequence (Q2MKA7 21-263 limits assumed): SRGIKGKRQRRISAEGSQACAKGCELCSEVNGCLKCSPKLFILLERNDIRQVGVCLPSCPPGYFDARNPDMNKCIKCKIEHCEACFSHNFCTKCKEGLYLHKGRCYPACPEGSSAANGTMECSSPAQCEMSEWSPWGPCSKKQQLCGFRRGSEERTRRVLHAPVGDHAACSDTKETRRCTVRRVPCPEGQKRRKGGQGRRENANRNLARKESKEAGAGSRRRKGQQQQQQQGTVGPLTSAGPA

human RSPO2 [2] = molecular target: T3, human RSPO2 (human, UniProt Q6UXX9 22-243, limits assumed); assay: Biacore (SPR)
T3 construct: Recombinant protein; also called R-spondin 2; recombinant human RSPO2
T3 sequence (Q6UXX9 22-243 limits assumed): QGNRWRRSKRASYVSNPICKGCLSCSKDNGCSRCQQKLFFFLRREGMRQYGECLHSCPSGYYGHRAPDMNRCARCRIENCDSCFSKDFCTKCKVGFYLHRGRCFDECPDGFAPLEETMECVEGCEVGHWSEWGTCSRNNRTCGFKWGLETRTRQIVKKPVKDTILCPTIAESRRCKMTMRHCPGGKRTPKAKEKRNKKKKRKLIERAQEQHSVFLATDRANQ

human RSPO4 [3] = molecular target: T4, human RSPO4 (human, UniProt Q2I0M5 20-234, limits assumed); assay: Biacore (SPR)
T4 construct: Recombinant protein; also called R-spondin 4
T4 sequence (Q2I0M5 20-234 limits assumed): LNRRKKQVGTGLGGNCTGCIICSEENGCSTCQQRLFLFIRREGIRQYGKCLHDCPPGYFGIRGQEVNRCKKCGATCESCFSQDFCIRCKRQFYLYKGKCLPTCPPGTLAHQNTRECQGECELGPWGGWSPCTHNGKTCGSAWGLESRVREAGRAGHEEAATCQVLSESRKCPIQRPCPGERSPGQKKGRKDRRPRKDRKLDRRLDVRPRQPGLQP

human RSPO3 [4] = molecular target: T1, human RSPO3; assay: Biacore (SPR)
human RSPO4 [5] = molecular target: T4, human RSPO4; assay: Biacore (SPR); human RSPO4
human RSPO3 [6] = molecular target: T1, human RSPO3; assay: Biacore (SPR); human RSPO3
human RSPO2 [7] = molecular target: T3, human RSPO2; assay: Biacore (SPR), against ZNRF3-Fc ECD fusion tested in parallel
human RSPO3 [8] = molecular target: T1, human RSPO3; assay: as above
human RSPO1 [9] = molecular target: T2, human RSPO1; assay: Biacore (SPR); human RSPO1
human RSPO2 [10] = molecular target: T3, human RSPO2; assay: Biacore (SPR); human RSPO2

Kd (human RSPO1 [1]) [nM]	Kd (human RSPO2 [2]) [nM]	Kd (human RSPO4 [3]) [nM]	Kd (human RSPO3 [4]) [nM]	Kd (human RSPO4 [5]) [nM]	Kd (human RSPO3 [6]) [nM]	fold stronger affinity than the ZNRF3-Fc ECD fusion (human RSPO2 [7]) [fold]	fold stronger affinity than the ZNRF3-Fc ECD fusion (human RSPO3 [8]) [fold]	Kd (human RSPO1 [9]) [nM]	Kd (human RSPO2 [10]) [nM]	Molecule
381	12.8	> 1000	6.58	–	–	–	–	–	–	ZNRF3-Fc ECD fusion (Fc fusion)
–	–	–	–	142	0.00145	~7000	~4500	53	0.00182	B1
